# Measured values: patent publication US20230002492A1 (SIMCERE SHANGHAI PHARMACEUTICAL, published 2023)
# Tests used:
# [1] = target: T1, PD-L1 on the surface of CHO-PD-L1 cells (UniProt Q9NZQ7 19-290, limits assumed); assay: flow cytometry on CHO-PD-L1 cells, anti-human IgG PE, MFI fold, ng/ml is the unit of the concentration axis
# T1 construct: whole, on cells; also called CHO-PD-L1 cells (Nanjing Yongshan Biotechnology); CHO cell line (GenScript, Cat. M00613) stably transfected with PD-L1
# Method: (§1) A gradient concentration of antibodies to be detected (final concentration of antibody: 10000 ng/ml-0.1 ng/ml, 10-foldserial dilution) were incubated with CHO-PD-L1 cells (Nanjing Yongshan Biotechnology Co., Ltd., 10⁵ cells/well) with high expression of PD-L1 on the cell surface at 4° C. ° C. for 30min. After incubation, 1:250 diluted anti-human IgG PE fluorescent antibody (eBioscience, Cat. 12-4998-8) was added, and incubated at 4° C. for 30 min. The fluorescent antibody specifically bound to the Fc fragment of the antibody to be detected. The fluorescent intensity of PE was detected by FACS, and the ability of the antibody to be detected to bind to PD-L1 protein highly expressed on the cell surface was analyzed. […] MFI fold=MFI value of the experimental group/MFI value of the control group without drugs.
# [2] = target: T2, recombinant human PD-L1 protein (Sino Biological, Cat. 10084-H05H) (human, UniProt Q9NZQ7 19-239); assay: competitive ELISA: coated human PD-L1 protein, antibody titrated together with human PD-1-His, bound PD-1-His detected with HRP anti-His
# T2 construct: also called PD-L1-mFc; human PD-L1 protein fused with mouse Fc
# Method: (§2) The recombinant human PD-L1 protein (Sino Biological, Cat. 10084-H05H) was diluted with carbonate buffer and added to a 96-well plate at a final concentration of […]. […] Then HRP-labeled anti-His tag antibody (MBL, Cat. D291-7) was added, and color development was performed with TMB. After termination with 1M sulfuric acid, OD values (dual wavelength 450 nm-630 nm) were read. The competitive binding curve of the test antibody can be drawn by matching the antibody concentration with the OD value to calculate the IC50 value.
# [3] = target: T3, cynomolgus monkey PD-L1-His protein (Sino Biological, Cat. 90251-CO8H) (cynomolgus monkey, UniProt G7PSE7 19-238); assay: SPR, Biacore T200, antibody captured, PD-L1-His injected, 1:1 model, 25 C
# T3 construct: Bought protein; also called cynomolgus monkey PD-L1 recombinant protein
# Method: (§3) Biacore T200 (GE Healthcare) was used to determine binding affinity of the PD-L1 antibody to the human and cynomolgus monkey PD-L1-His proteins. Anti-human IgG Fc (Genway, Cat. GWB-20A705) was immobilized on CM5 chip (GE Healthcare, Cat. BR-1005-30) at 25° C. Anti-human Fc (Genway, Cat. GWB-20A705) was diluted to […] with Acetate pH5.0 (GE Healthcare, BR-1003-51). The Amine method in the Immobilization method was used to immobilize. Alternatively, a commercially available Protein A (GE Healthcare, Cat. 29127556) chip was used for detection. […] In each cycle, the antibody to be tested was captured on the fixed CM5 chip, then injected with recombinant human PD-L1-His (Novoprotein, Cat. 315) and cynomolgus monkey PD-L1-His protein (Sino Biological, Cat. 90251-CO8H), and finally regenerated with Glycine pH1.5. The mobile phase was HBS-EP+Buffer (GE Healthcare, Cat. BR-1006-69), the flow rate was 30 μL/min, and the binding time was 300 seconds. The regeneration flow rate was 30 μL/min and the time was 30 seconds. Using Biacore T200 evaluation software (version 3.0), a 1:1 binding model was used to analyze the experimental data, fit the equilibrium dissociation constant KD of the antibody and antigen, and determine the binding rate constant Ka and dissociation rate constant Kd.
# [4] = target: T4, recombinant human PD-L1-His (Novoprotein, Cat. 315) (human, UniProt Q9NZQ7 19-239); assay: as above
# T4 construct: Bought protein; also called human PD-L1 recombinant protein; human PDL1 protein; not shown: His tag
# Method: as §3
# [5] = target: T2, recombinant human PD-L1 protein (Sino …); assay: competitive ELISA: PD-L1 coated, antibody titrated against PD-1-His, anti-His-HRP
# Method: as §2
# [6] = target: T1, PD-L1 on the surface of CHO-PD-L1 cells; assay: cell-based or functional assay
# [7] = target: T4, recombinant human PD-L1-His …; assay: SPR, Biacore T200, antibody captured, human PD-L1-His injected, 1:1 model, 25 C
# Method: as §3
# [8] = target: T1, PD-L1 on the surface of CHO-PD-L1 cells; assay: flow cytometry on CHO-PD-L1 cells, anti-human IgG PE
# Method: as §1
# T1 sequence (Q9NZQ7 19-290 limits assumed): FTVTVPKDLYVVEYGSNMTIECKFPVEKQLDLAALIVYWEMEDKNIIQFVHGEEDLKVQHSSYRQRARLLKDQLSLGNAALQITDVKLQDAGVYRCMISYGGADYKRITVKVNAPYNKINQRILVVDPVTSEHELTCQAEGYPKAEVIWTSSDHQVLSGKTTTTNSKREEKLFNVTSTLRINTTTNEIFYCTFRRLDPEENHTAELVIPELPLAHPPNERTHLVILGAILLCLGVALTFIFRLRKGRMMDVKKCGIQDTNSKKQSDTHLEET
# T3 sequence (G7PSE7 entry or part of it limits assumed): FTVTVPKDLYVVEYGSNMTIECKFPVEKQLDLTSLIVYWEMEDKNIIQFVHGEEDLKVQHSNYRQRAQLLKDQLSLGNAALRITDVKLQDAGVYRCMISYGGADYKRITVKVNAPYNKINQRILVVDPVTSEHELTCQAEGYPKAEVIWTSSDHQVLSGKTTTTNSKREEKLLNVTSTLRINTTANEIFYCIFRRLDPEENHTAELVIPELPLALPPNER
# T4 sequence (Q9NZQ7 19-239 limits assumed): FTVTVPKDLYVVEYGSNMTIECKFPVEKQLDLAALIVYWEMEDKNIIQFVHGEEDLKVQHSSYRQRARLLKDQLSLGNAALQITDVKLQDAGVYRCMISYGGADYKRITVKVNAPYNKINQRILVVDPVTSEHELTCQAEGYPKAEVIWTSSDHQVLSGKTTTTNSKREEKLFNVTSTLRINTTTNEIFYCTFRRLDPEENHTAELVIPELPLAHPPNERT
# T2 sequence (Q9NZQ7 19-239 limits assumed): as above
Binder,EC50 [1],IC50 [2],Kd [3],Kd [4],IC50 [5],"EC50 of NFAT luminescence reporter gene (RLU), Jurkat-PD-1 / CHO-PD-L1 co-culture [6]",Kd [7],koff [7],kon [7],EC50 [8]
"156-11H (antibody, V domains shown) VH: QVQLVQSGPELKKPGASVKISCKASGYTFTDYYMNWVRQAPGQSLEWIGDIWPNNGDTSYNQKFKGRVTLTRDTSTSTVYMELRSLRSEDTAVYYCARSVMDYWGQGTLVTVSS VL: EIVLTQSPALLSLSPGERVTLSCSASSSVNYVYWYQQKPGQAPRPLIYLTFNLASGIPARFSGSGSGTDFTLTISSLEPEDFAVYYCQQWSVNPLTFGGGTKVEIK",,,,,0.207 µg/mL,0.282 µg/mL,0.336 nM,0.000193 s⁻¹,574000 M⁻¹ s⁻¹,0.05 µg/mL
"PDL1-50 (antibody, V domains shown) VH: EVQLQESGGDLVKPGGSLKLSCAASGFTFNTYGMSWVRQTPDKRLEWVATLSSGGSYTYYSESVKGRFTISRDNAKNTLYLQMTSLKSEDTAIYYCARPTADWHLDVWGTGTTVTVSS VL: DIQMTQSPSSLSASLGGKVTITCKASQDINKYIAWYQHKPGKGPRLLIHYTSTLQPGIPSRFSGSGSGRDYSFSISNLEPEDIATYYCLQHDNLLFTFGSGTKLEIK",0.113 µg/mL,0.294 µg/mL,33.1 nM,0.699 nM,,,,,,
"PDL1-90 (antibody, V domains shown) VH: EVQLQESGGDLVKPGGSLKLSCTASGFTFSTYGMSWVRQTPDKRLEWVATVSSGGSYTYYPDSVKGRFTISRDNAKNTLYLQMSSLKSEDTAIYYCARPTADWHLDVWGTGTTVTVSS VL: DIQMTQTPSSLSASLGGKVTITCKASQDINRYIAWYQHKPGKGPSLLIHYTSTLQPGIPSRFSGSGSGRDYSFSISNLEPEDIATYYCLQHDNLLFTFGSGTKLEIK",0.119 µg/mL,0.259 µg/mL,62.5 nM,0.87 nM,,,,,,
"PDL1-370 (antibody, V domains shown) VH: EVQLQESGPGLAKPSQTLSLTCSVTGYSITSDYWNWIRKFPGNKLEYMGYISYTGSTYYNPSLKSRISIARDTSRNQYYLQLNSVTTEDSATYYCARAGGWLLPFAVWGTGTTVTVSS VL: DIVITQSPSSLAVSVGEKVTMSCKSSQSLLYSSNQQNSLAWYQQKPGQSPILLIYWASTRESGVPDRFTGGGSGTDFTLTISSVRAEDLAVYYCQQYYNYPWTFGGGTKLEIK",,0.156 µg/mL,2.18 nM,2.42 nM,,,,,,
"PDL1-413 (antibody, V domains shown) VH: EVQLQESGPGLAKPSQTLSLTCSVTGYSITSDYWNWIRKFPGNKLEYMGYISYTGSTYYNPSLKSRISIARDTSRNQYYLQLKSVTTEDTATYYCARAGGWLLPFAVWGTGTTVTVSS VL: DIVMTQSPSSLAVSVGEKVTMSCKSSQSLLYSSNQQNSLAWYQQKPGQSPILLIYWASTRESGVPDRFTGSGSGTDFTLTISSVRAEDLAVYYCQQYYSYPWTFGGGTKLEIK",,0.184 µg/mL,2.76 nM,2.09 nM,,,,,,

# Other lines, results leading:
EC50 [1],IC50 [2],Kd [3],Kd [4],IC50 [5],"EC50 of NFAT luminescence reporter gene (RLU), Jurkat-PD-1 / CHO-PD-L1 co-culture [6]",Kd [7],koff [7],kon [7],EC50 [8],Binder
0.0646 µg/mL,0.225 µg/mL,1.95 nM,2.18 nM,,,,,,,"PDL1-130 (antibody, V domains shown) VH: EVQLQESGPGLAKPSQTLSLTCSVTGYSITSDYWNWIRKFPGNKLEYVGYISYTGSTYYNPSLRSRISITRDTSKNQYYLQLNSVTAEDTATYYCARCPGWLNAMDYWGQGTTVTVSS VL: DILMTQSPSSLAVSVGEKVTLSCKSSQSLLYSNNQKNSLAWYQQKPGQSPKLLIYWASTGESGVPDRFTGSGSGTDFTLTISSVKAEDLAVYYCQQYYGYPFTFGAGTKLEIK"
,,,,0.231 µg/mL,0.314 µg/mL,0.348 nM,0.00018 s⁻¹,518000 M⁻¹ s⁻¹,0.0784 µg/mL,"156-7H (antibody, V domains shown) VH: QVQLVQSGPELKKPGASVKISCKASGYTFTDYYMNWVRQAPGQSLEWIGDIWPNNGDTSYNQKFKGRVTLTRDTSTSTVYMELRSLRSEDTAVYYCARSVMDTWGQGTLVTVSS VL: EIVLTQSPALLSLSPGERVTLSCSASSSVNYVYWYQQKPGQAPRPLIYLTFNLASGIPARFSGSGSGTDFTLTISSLEPEDFAVYYCQQWSVNPLTFGGGTKVEIK"
,,,,0.197 µg/mL,0.342 µg/mL,0.458 nM,0.000227 s⁻¹,494000 M⁻¹ s⁻¹,0.0494 µg/mL,"156-1H (antibody, V domains shown) VH: QVQLVQSGPELKKPGASVKISCKASGYTFTDYYMNWVRQAPGQSLEWIGDIWPNNGDTWYNQKFKGRVTLTRDTSTSTVYMELRSLRSEDTAVYYCARSVMDYWGQGTLVTVSS VL: EIVLTQSPALLSLSPGERVTLSCSASSSVNYVYWYQQKPGQAPRPLIYLTFNLASGIPARFSGSGSGTDFTLTISSLEPEDFAVYYCQQWSVNPLTFGGGTKVEIK"
,,,,0.25 µg/mL,0.357 µg/mL,0.224 nM,0.000133 s⁻¹,595000 M⁻¹ s⁻¹,0.0635 µg/mL,"156-10H (antibody, V domains shown) VH: QVQLVQSGPELKKPGASVKISCKASGYTFTDYYMNWVRQAPGQSLEWIGDIWPNNGDTSYNQKFKGRVTLTRDTSTSTVYMELRSLRSEDTAVYYCARSVMSDWGQGTLVTVSS VL: EIVLTQSPALLSLSPGERVTLSCSASSSVNYVYWYQQKPGQAPRPLIYLTFNLASGIPARFSGSGSGTDFTLTISSLEPEDFAVYYCQQWSSNPLTFGGGTKVEIK"
0.113 µg/mL,0.276 µg/mL,5.43 nM,0.458 nM,,,,,,,"PDL1-34 (antibody, V domains shown) VH: EVQLQESGGDLVKPGGSLKLSCAASGFTFNTYGMSWVRQTPDKRLEWVATLSSGGSYTYYSESVKGRFTISRDNAKNTLYLQMNSLKSEDTAIYYCARPTADWHLDVWGTGTTVTVSS VL: DILMTQSPSSLSASLGGKVTITCNASQDINKYIAWYQHKPGKGPSLLIHYTSTLQPGIPSRFSGSGSGRDYSFSISNLEPEDIATYYCLQHDNLLFTFGSGTKLEIK"
,0.191 µg/mL,0.883 nM,1.25 nM,,,,,,,"PDL1-794 (antibody, V domains shown) VH: EVQLQESGPSLVKPSQTLSLTCSVTGDSITSGYWNWIRKFPGNKLEYMGYISYSGSTYYNPFLKSRISITRDTSKNQYYLQLNSVTTEDTATYYCAKMGDWLAWFAYWGQGTTVTVSS VL: not shown"
0.0633 µg/mL,0.12 µg/mL,3.64 nM,2.45 nM,,,,,,,"PDL1-373 (antibody, V domains shown) VH: EVQLQESGGGLVKPGGSLKLSCAASGFTFSDYGMHWVRQAPEKGLEWVAYISSGSSTIYYADTVKGRFTISRDNAKNTLFLQMTSLRSEDTAMYYCARRNFGSSYDYWGQGTTVTVSS VL: EIVMTQSHKFMSTSVGDRVSITCKASQDVDTPVAWYQQKPGQSPRLLIYWASIRHTGVPDRFTGSGSGTDFTLTISNVQSEDLADYFCQQYSSYPLTFGSGTKLEIK"
